Entries after “also recorded” stand apart in the source; their conditions may differ.
Experiments:
VAP-1 [1] = target: T1, VAP-1 (Homo sapiens, UniProt Q16853); settings: computer docking simulations, literature; cited from earlier work
T1 sequence (Q16853 1-763): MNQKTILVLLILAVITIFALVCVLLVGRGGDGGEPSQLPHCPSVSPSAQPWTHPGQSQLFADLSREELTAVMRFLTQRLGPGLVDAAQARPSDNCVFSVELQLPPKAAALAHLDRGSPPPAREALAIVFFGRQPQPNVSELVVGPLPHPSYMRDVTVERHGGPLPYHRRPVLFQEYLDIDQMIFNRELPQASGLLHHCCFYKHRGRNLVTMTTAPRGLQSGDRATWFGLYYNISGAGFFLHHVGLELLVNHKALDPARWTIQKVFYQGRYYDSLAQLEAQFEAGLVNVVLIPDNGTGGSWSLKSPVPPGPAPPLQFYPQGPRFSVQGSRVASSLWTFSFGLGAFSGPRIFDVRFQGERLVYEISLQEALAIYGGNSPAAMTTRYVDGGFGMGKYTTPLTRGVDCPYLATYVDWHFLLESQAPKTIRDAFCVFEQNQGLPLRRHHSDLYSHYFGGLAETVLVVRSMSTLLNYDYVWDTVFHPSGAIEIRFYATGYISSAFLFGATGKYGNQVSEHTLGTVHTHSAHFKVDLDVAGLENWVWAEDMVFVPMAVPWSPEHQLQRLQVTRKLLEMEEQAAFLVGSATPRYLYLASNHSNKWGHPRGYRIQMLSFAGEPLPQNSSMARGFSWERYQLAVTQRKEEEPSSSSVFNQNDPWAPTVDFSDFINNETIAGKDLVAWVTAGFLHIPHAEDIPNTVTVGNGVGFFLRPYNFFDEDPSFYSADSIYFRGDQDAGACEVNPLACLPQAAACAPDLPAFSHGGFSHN

VAP-1 [2] = target: T1, VAP-1; test: Fluorometric detection of SSAO-mediated H2O2 formation (Amplex Red) with VAP-1 transfected CHO cells; format: biochemical; set-up: The CHO cells stably transfected with the cDNA encoding VAP-1 was used; expressed in transfected cells; host or cells: CHO cells, stably transfected; settings: for inhibition of the activity (VAP-1 SSAO): methylamine substrate
Description: Cells. The CHO cells stably transfected with the cDNA encoding VAP-1 was used. The VAP-1 expression level of these cells was confirmed by staining with anti-VAP-1 monoclonal antibodies and subsequent flow cytometric analyses. The VAP-1 transfectants were grown into the confluence, detached, counted and equal numbers were divided to 96 well plates for enzymatic assays.
Fluorometric detection of SSAO-mediated H2O2 formation. Amine oxidase activities were measured using a highly sensitive and stable probe for H2O2 Amplex Red reagent (Molecular Probes Europe BV) as described previously (Salmi et al., 2001). The enzymes were incubated in white microplates in the final volume of 200 μl KRPG containing various concentrations of the tested peptides, 0.8 U/ml horseradish peroxidase, 60 μM Amplex Red reagent, and methylamine as preferred amine substrate for SSAO. Fluorescence intensity of the samples was measured using Tecan ULTRA fluoropolarometer (excitation/emission wavelengths 545/595 nm). To evaluate the amount of H2O2 formed via SSAO-mediated reaction, specific enzyme inhibitor semicarbazide (200 μM) was included in the control well, and these values were subtracted from the total amount of H2O2 formed. To test whether the peptides could interfere with fluorometric H2O2 detection, H2O2 concentrations were calculated from calibration curves generated by serial dilutions of standard H2O2 in the presence of various concentrations of peptides. All calibration curves show linear dependence of the measured fluorescence intensity vs. H2O2 concentration in the presence of peptides in concentrations less than 250 micrograms/ml.

[3] = peptide concentration 10 micrograms/ml
[4] = peptide concentration 100 micrograms/ml

Substance	binding to the active site of VAP-1 in docking (VAP-1 [1])	inhibition of the activity (VAP-1 SSAO) (VAP-1 [2]; [3]) [%]	inhibition of the activity (VAP-1 SSAO) (VAP-1 [2]; [4]) [%]	VAP-1 inhibiting activity compared with earlier lysine containing peptides (VAP-1 [2]; comparison in words)
GGGKGGG (VAP-1 targeting peptide) [previously disclosed lysine containing peptide]	bind optimally	–	–	–
GGGKEGG (VAP-1 targeting peptide) [previously disclosed lysine containing peptide]	bind optimally	–	–	–
GGGGKGGGG (VAP-1 targeting peptide)	bind optimally	17.4	20.3	–
GGGKKGG (VAP-1 targeting peptide) [previously disclosed lysine containing peptide]	bind optimally	–	–	–
GGGGKYGGG (VAP-1 targeting peptide)	–	33.5	42.8	stronger than that of the previously disclosed lysine containing peptides; also recorded: more potent inhibitor of VAP-1 than GGGGKGGGG

Source: patent publication US20080213176A1, “Compositions for Targeting Amine Oxidases in Vivo” (priority 2005, published 2008)
